Measurements taken from article PMC5316958, “A combination of mutational and computational scanning guides the design of an artificial ligand-binding controlled lipase” (Scientific Reports, 2017).
Several values for one entry are separate records, joined by “and”; a condition that tells them apart may be missing. Equal values may be shown once.

How the values were obtained:
[1] = molecular target: T1, Bacillus subtilis lipase A (BsLA) (Bacillus subtilis, UniProt P37957); assay: hydrolysis of p-NPB by purified enzyme, p-nitrophenolate release at […] nm (specific activity); type: biochemical
T1 construct: gene estA; purified wild-type BsLA

[2] = molecular target: the molecule itself; assay: SAXS
[3] = molecular target: the molecule itself; assay: AUC; sedimentation velocity, CitAP-BsLA 0.5 mg/ml, 10 mM glycine buffer pH 10, 10 mM NaCl, with or without 1 mM sodium citrate, 25 °C, 40 krpm; c(s) with Bayesian prior, discrete species of known mass; monomer, dimer and higher oligomers

CCCC(=O)Oc1ccc([N+](=O)[O-])cc1 [p-nitrophenylbutyrate]
hydrolysis of p-NPB by purified enzyme, p-nitrophenolate release at 410 nm (spec) [1]: 181 ± 3 U/mg

B1: CitAP-BsLA (enzyme)
chain: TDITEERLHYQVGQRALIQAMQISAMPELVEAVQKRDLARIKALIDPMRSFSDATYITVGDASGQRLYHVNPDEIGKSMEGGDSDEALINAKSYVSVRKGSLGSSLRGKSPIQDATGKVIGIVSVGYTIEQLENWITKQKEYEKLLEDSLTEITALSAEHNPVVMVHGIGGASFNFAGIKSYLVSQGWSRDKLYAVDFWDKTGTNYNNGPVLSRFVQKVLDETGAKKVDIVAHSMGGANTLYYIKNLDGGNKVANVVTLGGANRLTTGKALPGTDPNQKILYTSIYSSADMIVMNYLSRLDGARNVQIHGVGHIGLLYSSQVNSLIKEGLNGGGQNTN
Kd [2]: 24 µM and 29 µM
stoichiometry N [3]: 2
